Assay results taken from patent US12723078 (University of Texas, dated 2026).

Molecular target: T1, human LILRB1 recombinant protein (human, UniProt Q8NHL6 24-461)
T1 construct: The ELISA method says only 'LILRB1 recombinant proteins' coated on plates; also called leukocyte immunoglobulin-like receptor subfamily B member 1
Assay: ELISA, B cell supernatant

T1 sequence (Q8NHL6 24-461 limits assumed): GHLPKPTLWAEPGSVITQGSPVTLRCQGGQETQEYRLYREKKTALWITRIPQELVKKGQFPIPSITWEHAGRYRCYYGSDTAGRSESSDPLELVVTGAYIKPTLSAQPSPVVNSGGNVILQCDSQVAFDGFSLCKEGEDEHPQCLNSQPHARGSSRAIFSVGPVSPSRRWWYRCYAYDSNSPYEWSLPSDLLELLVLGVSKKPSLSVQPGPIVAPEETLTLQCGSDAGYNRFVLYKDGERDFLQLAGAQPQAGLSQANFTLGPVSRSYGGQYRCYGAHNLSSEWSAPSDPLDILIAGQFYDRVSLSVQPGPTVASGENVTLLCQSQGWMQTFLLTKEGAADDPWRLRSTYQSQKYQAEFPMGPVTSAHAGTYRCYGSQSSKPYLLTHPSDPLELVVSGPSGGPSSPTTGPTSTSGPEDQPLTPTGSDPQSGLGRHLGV

Row | Binder | OD450 [OD450]
1 | mAb of B cell clone 3 (supernatant) (antibody, V domains shown, rabbit; also called B1-#3) VH: QSLEESEGDLVKPEGSLTLTCKASGFDFSSDAMCWVRQAPGKGLEWIGCIYNGDEITDHASWAKGRFTISKTSPTTVTLQMTSLTVADTATYFCARAVYSDGGAGYPYMYGMDLWGPGTLVTVSS VL: ELDMTQTPASVEAAVGGTVTIKCQASQNIYSYLVWYQQKPGQPPKLLISKASTLASGVSSRFKGSGSGTEFTLTINDLECADAATYYCQTNYFSSTSHFGVFTFGGGTELEIK | 2.11
2 | mAb of B cell clone 115 (supernatant) (antibody, V domains shown, rabbit) VH: EQSVKESGGGLVQPEGSLTLTCTASGFSFSSSYWICWVRQAPGKGLEWIGCIATGTGSTYYANWVNGRFTMSKPSSTTVTLQMTTLTAADTATYFCARGGGYWSFSLWGPGTLVTISS VL: ELVMTQTPSSVEAAVGGTVTNKCQASEDIYSNLAWYQQKPGQPPKLLIYGATTLASGVPSRFKGSGSGTEFTLTISDLECADAATYYCQAESNDVWAFGGGTEVVVK | 1.53
3 | mAb of B cell clone 204 (supernatant) (antibody, V domains shown, rabbit) VH: QSVKESGGGLVKPGGTLTLTCTASGFSFSSSYCMCWVRQAPGKGLELIACIYTDSSGATYYASWAKGRFTISKSSSTTITLQMTSLTAADTATYFCARGWDYEDPGYTDTTYFSLWGPGTLVTVSS VL: ELDMTQTPSSVEAAVGGTVTIKCQASQTIYTNLAWYQQKPGQPPNLLIYAASTLASGVSSRFKGSGSGTEFTLTISDLECADAATYYCQSYYGSSTTGNGFGGGTEVEIN | 2.03
4 | mAb of B cell clone 128 (supernatant) (antibody, V domains shown, rabbit) VH: RAVGKESGGDLVTLGGSLKLSCKASGIDLSNFYYMCWVRQAPGKGLEWIGCVASDSSRTHYATWPKGRFTISKTSSTTVTLQMTSLTAADTATYFCARGSGASTNGVWWVMGDGMDLWGPGTLVTVSS VL: ELDMTQTPSSVSAAVGGTVTIKCQASQSISSYLSWYQQKPGQPPKRLIYKASTLPSGVPPRFKGSGSGTEFTLTISDLECADAATYYCQNNYHSGSSNGGGFAFGGGTQVEIK | 2.51
5 | mAb of B cell clone 167 (supernatant) (antibody, V domains shown, rabbit) VH: EQLMEESGGGLVQPEGSLTLTCTASRFSLSNMNVMCWVRQAPGKGLEWIGCINIGGTNIWYASWAKGRFTISKTSSTTVTLQMTSLTVADTATYFCARSYITDRIYDYDFWGPGTLVTISS VL: ELDMTQTPSPVSAAVGGSVTISCQASQTIYNNKNLAWYQQKPGQPPKLLIYQASKLASGVSSRFSGSGSGTQFTLTISGVQCDDAATYYCQGEFSCSSGDCTTFGGGTEVVVK | 1.12
6 | mAb of B cell clone 110 (supernatant) (antibody, V domains shown, rabbit; also called B1-#110) VH: QSLEESGGDLVKPEGSLTLTCTASGFSFSSSYWICWVRQAPGKGLEWIGCIYAGNSANTYYASWAKGRFTISKTSSTTVTLQLTSLTAADTATYFCASRNGGAPDGLNLWGPGTLVTISS VL: ELDLTQTPASVEAAVGGTVTIKCQASLNINSWLAWYQQKPGQPPKLLISYTSSLASGVPSRFKGSGSGTEYTLTINDLECADAATYYCQTTYFGTNGGGFGGGTEVEIK | 2.31
7 | mAb of B cell clone 162 (supernatant) (antibody, V domains shown, rabbit; also called B1-#162) VH: QSVKESEGGLVQPGGSLTLSCKASGIDFSSAYMSWVRQAPGKGLEWIGKMRINDRSHYANWVNGRFTISNHNDQNTVELQLNSLTAADTATYFCARIATGTNVDDFWGPGTLVTISS VL: ELVMTQTASPVSAAVGGTVTISCQSSQSVYSNNWLSWYQQKPGQPPKRLIYKASTLETGVPSRFKGSGSGKQFTLTISDLECDDAATYYCAGGYSGDLYAFGGGTEVVVK | 2.02
8 | mAb of B cell clone 98 (supernatant) (antibody, V domains shown, rabbit; also called B1-#98) VH: EQSLEESGGDLVKPEGSLTLTCTASGFSFSSSYWICWVRQAPGKGLEWIACVATGSGTTDYASWAKGRFTMSKTSSTTVTLQMTSLTVADTATYFCARIGAFYSFRLWGPGTLVTISS VL: ELDLTQTPGSVEAAVGGTVTIKCQAGQSIYNYLSWYQQKPGQPPKLLIYSASTLESGVPPRFSGSGSGTEFTLTISDLECADAATYSCQNNYGIGSNYGPGFGGGTEVEIK | 2.01
9 | mAb of B cell clone 154 (supernatant) (antibody, V domains shown, rabbit) VH: QSVKESGGDLVKPGASLTLTCKASGFSFSSGHYMYWVRQAPGKGLEWIACIYAGSDTGSTWYASWAKGRFTISKTSSTTVTLQMTSLTAADTATYFCARSSNSYGNYGVSNLWGPGTLVTVSS VL: ELDLTQTPASVEAAVRGTVTIKCQASQSISYYLAWYQQKPGQPPKVLIYKASTLASGVPPRFKGSGFGTEFTLTISDLECADAATYYCQSTYGRDNNDLFFAFGGGTEVEIK | 1.98
10 | mAb of B cell clone 125 (supernatant) (antibody, V domains shown, rabbit) VH: EQSLEESGGGLVQPEGSLTLTCTASGFSFTKNYYMCWVRQAPGKGLEWIGCIYAGSTNTFYASWAKGRFTISKASSTTVDLKMTSLTVADTATYFCARDFVSYLNLWGPGTLVTVSS VL: ELDLTQTPSSSSAAVGGTVTINCQASQSVYNKNYLSWFQQKPGQPPKLLIYYASTLASGVPSRFKGSGSGTEFTLTISDVVCDDAATYYCAAYKGVSDDGISFGGGTEVEIK | 2.43
11 | mAb of B cell clone 4 (supernatant) (antibody, V domains shown, rabbit; also called B1-#4) VH: RAVGKESGGGLVKPGASLTLTCKASGFDFSGIYWVCWVRQAPGKGLEWIACFDAERTGNTYYATWAKGRFTISRTSSTTVTLQMTSLTAADTATYFCARSYYMWGPGTLVTVSS VL: ELVLTQTPSPVSAVVGGSVTINCQSSQSLYNANDLSWYQQKPGQPPKQLIYWASTLASGVPSRFKGSGSGTQFTLSISDVQCDDAATYYCLGEFSCSSFDCHVFGGGTEVVVK | 2.47
12 | mAb of B cell clone 117 (supernatant) (antibody, V domains shown, rabbit) VH: EQSLEESGGDLVKPEGSLTLTCTASGFSFSSSYYMCWIRQPPGRGLEWLACIYTGSDSTYYAPWAKGRFTISRTSSTTVTLQMTSLTAADTATYFCAGDWDYADAAGYYVARGFNLWGPGTLVTISS VL: ELDLTQTPASVSAAVGGTVTIKCQASEDIYSNLAWYQQKPGQPPKLLIYKASTLASGVPPRFKGSGSGTEYTLTISGVQCDDAATYACQTTYWTTTDDNPFGGGTEVEIK | 2.23
13 | mAb of B cell clone 93 (supernatant) (antibody, V domains shown, rabbit; also called B1-#93) VH: EQSVEESGGDLVKPGTSLTLTCTASGFSFSGNTICWVRQAPGKRPEWIACIYPSSTSITTYATWAKGRFTVSKTSSTTVTLQMTSLTAADTATYFCARRYAAFLTYGSGAFDPWGPGTLVTISS VL: ELDLTQTPASVSAAVGGTVTINCQASESIGSALAWYQQKPGQPPKLLIYSASALASGVPSRFKGSGSGTEYTLTISDLECADAATYYCQSYYGSGTTALDTFGGGTEVEIK | 1.72
14 | mAb of B cell clone 160 (supernatant) (antibody, V domains shown, rabbit; also called B1-#160) VH: QEQLVESGGGLVQPEGSLTLTCKASGIDFSSGYWICWVRQAPGKGLELIACIFTSSGTTYYASWAKGRFTISKTSSTTVTLQMTSLTAADTATYFCARDIYSYGMDLWGPGTLVTVSS VL: ELDLTQTPASVSAAVGGTVTIKCQASQSISSSYLAWYQQKPGQPPKLLIYSASSTASGVPSRFKGSGSGTQFTLTISDLECADAATYYCQSTYISSSKYGAVFGGGTELEIK | 1.87

Further lines, results first:

Row | OD450 [OD450] | Binder
15 | 2.06 | mAb of B cell clone 176 (supernatant) (antibody, V domains shown, rabbit) VH: QSLEESEGGLVKPGGTLTLTCTASGFSFSSSYCMCWVRQAPGKGLELIACIYTDSSGATYYASWAKGRFTISKSSSTTITLQMTSLTAADTATYFCARGWDYEDPGYTDTTYFSLWGPGTLVTVSS VL: ELDLTQTPSSVEAAVGGTVTIKCQASQTIYTNLAWYQQKPGQPPNLLIYAASTLASGVSSRFKGSGSGTEFTLTISDLECADAATYYCQSYYGSSTTGNGFGGGTEVEIK
16 | 2.08 | mAb of B cell clone 227 (supernatant) (antibody, V domains shown, rabbit) VH: QSVKESGGGLVKPGGTLTLTCTASGFSFSSSYCMCWVRQAPGKGLELIACIYTDSSGATYYASWAKGRFTISKSSSTTITLQMTSLTAADTATYFCARGWDYEDPGYTDTTYFSLWGPGTLVTVSS VL: ELDLTQTASPVSGAVGGTVTIKCQASQSIASDLAWYQQKPGQPPNLLIYAASTLASGVSSRFKGSGSGTEFTLTISDLECADAATYYCQSYYGSSTTGNGFGGGTEVVVK
17 | 2.02 | mAb of B cell clone 175 (supernatant) (antibody, V domains shown, rabbit) VH: ESEGGLVKPGGTLTLTCKVSGIDFNSYKYYYMCWVRQAPGKGLEWIGCMSTASRNIYYASWAKGRFTISETSSTSVTLQMTTLTAADTATYFCAKSHGGDGGYGVVLWGPGTLVTISS VL: ELVMTQTPSSVSAAVGDTLTINCQASETISNRLAWYQQKPGQPPKLLIYSASTLESGVPSRFRGSGSGTQFTLTISDLECADAATYYCQSIRSSSGVVHPNTFGGGTEVEIK
18 | 2.14 | mAb of B cell clone 173 (supernatant) (antibody, V domains shown, rabbit) VH: QSVEESGGDLVKPGASLTLTCTASGFDFSSNAYLCWVRQAPGKGLEWIGCIYDGTSGDTYYANWAKGRFTISRSSSTTVTLQMTSLTAADTATYFCARDTRSSNYYFNLWGPGTLVTISS VL: ELVLTQTPSSTSAAVGGTVTINCQASQSVDNNKQLSWYQQKPGQPPKQLIYSASKLASGVPSRFKGSGSGTQFTLTISDLECDDAATYYCAGYYYSGSATDAWAFGGATEVEIN
19 | 2.26 | mAb of B cell clone 170 (supernatant) (antibody, V domains shown, rabbit; also called B1-#170) VH: QSVEESGGGLVKPGASLTLSCTASGFDFSSKYYMWWVRQAPGKGLEWIARIYGGSSDSTDYATWARGRFAISRTSSTTVTLRMTSLTAADTATYFCGRVIDGACGYDLWGPGTLVTVSS VL: ELDLTQTPASVSAAVGGTVTISCQSSQSVHHSQTVHNNQWLAWYQQKPGQPPKLLIYDASKLASGVPSRFTGSGSGTQFSLTISAVQCDDAATYYCQGGYSYGDVYGFGGGTELEIK
20 | 1.81 | mAb of B cell clone 178 (supernatant) (antibody, V domains shown, rabbit) VH: QKQLVESGGGLVQPEGSLALTCTASGFSFSSSYWICWVRQAPGKGLEWIACIYAGSSGSTYYASWVNGRFTVFKTSSTTVTLQMTSLTAADTATYFCARGGTSYRLDLWGPGTLVTVSS VL: ELVLTQTPSSKSVAVGDTVTINCQASDNVYSNNYTSWFQQKPGQPPKQLLYYAAYRASGVPSRFKGSGSGTEFTLSISDVVCDDAATYYCSGHKDYSDDGSTFGGGTEVEIK
21 | 1.67 | mAb of B cell clone 185 (supernatant) (antibody, V domains shown, rabbit) VH: SQQLKESGGGLVKPGGTLTLTCKASGIDFNNDYNICWVRQPPGKGLEWIGCIYTGSDSTDYASWVNGRFTISESTSLNTVDLKVTSLTDADTATYFCARDLVTGYATYGYGFILWGPGTLVTVSS VL: ELVLTQTPSSKSVAVGDTVTINCQASDNVYSNNYTSWFQQKPGQPPKQLLYYAAYRASGVPSRFKGSGSGTEFTLSISDVVCDDAATYYCSGHKDYSDDGSTFGGGTEVEIK
